# T1: mouse GCC (mouse, UniProt Q3UWA6 20-1072)
# T1 construct: whole, on cells; also called mGCC; HEK293T.mGCC.Luc cells
# T1 sequence (looked up): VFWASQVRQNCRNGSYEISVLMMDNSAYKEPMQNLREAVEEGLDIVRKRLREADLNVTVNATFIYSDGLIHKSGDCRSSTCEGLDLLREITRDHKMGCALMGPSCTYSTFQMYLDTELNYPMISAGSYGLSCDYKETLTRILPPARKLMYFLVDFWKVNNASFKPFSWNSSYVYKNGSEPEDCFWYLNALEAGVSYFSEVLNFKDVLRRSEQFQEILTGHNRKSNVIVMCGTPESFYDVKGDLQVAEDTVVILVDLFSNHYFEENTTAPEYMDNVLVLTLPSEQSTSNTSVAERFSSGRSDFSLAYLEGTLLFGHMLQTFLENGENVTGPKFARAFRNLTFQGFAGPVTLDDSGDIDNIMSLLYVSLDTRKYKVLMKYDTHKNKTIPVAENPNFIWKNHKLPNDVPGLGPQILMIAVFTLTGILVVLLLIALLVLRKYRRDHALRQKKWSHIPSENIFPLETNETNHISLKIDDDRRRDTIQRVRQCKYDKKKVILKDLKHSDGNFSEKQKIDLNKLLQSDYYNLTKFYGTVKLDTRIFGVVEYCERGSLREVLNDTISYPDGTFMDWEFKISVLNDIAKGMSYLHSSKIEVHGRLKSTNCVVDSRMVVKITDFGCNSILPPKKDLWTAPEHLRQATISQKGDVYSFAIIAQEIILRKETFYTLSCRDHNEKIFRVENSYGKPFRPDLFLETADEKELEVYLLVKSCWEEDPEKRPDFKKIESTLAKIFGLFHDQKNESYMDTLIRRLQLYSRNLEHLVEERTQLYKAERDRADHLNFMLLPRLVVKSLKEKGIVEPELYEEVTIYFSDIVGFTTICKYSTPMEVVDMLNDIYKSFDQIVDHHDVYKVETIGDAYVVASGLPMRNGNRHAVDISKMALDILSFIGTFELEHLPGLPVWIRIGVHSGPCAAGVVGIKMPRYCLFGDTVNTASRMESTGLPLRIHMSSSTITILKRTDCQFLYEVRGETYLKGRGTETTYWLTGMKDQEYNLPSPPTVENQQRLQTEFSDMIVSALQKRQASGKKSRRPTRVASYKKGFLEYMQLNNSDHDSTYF
# B1: VHHC0694H2-mIgG1Fc (Fc fusion)
# chain: QVQLVESGGGVVQPGRSLRLSCAASGYTYSRYCMAWFRQAPGKEREGVAVIDPDGSTTYADSVKGRFTISQDNSKNTLYLQMNSLRAEDTAVYYCAADPRVWYGGTCRAGRTDFSNWGQGTMVTVSSVPRDCGCKPCICTVPEVSSVFIFPPKPKDVLTITLTPKVTCVVVDISKDDPEVQFSWFVDDVEVHTAQTQPREEQFNSTFRSVSELPIMHQDWLNGKEFKCRVNSAAFPAPIEKTISKTKGRPKAPQVYTIPPPKEQMAKDKVSLTCMITDFFPEDITVEWQWNGQPAENYKNTQPIMNTNGSYFVYSKLNVQKSNWEAGNTFTCSVLHEGLHNHHTEKSLSHSPGK
# notes: also called humanized chimeric antibody VHHC0694H2-mIgG1Fc
# B2: VHHA2322H2-mIgG1Fc (Fc fusion)
# chain: QVHLVESGGGVVQPGRSLRLSCAASGYTGRRLCRGWFRQAPGKEREGVATITLSGRASYADSVKGRFTISQDNSKNTLYLQMNSLRAEDTAVYFCAEVRSADAEWLNPLKCHPDRLGLAGVDWGQGTTVTVSSVPRDCGCKPCICTVPEVSSVFIFPPKPKDVLTITLTPKVTCVVVDISKDDPEVQFSWFVDDVEVHTAQTQPREEQFNSTFRSVSELPIMHQDWLNGKEFKCRVNSAAFPAPIEKTISKTKGRPKAPQVYTIPPPKEQMAKDKVSLTCMITDFFPEDITVEWQWNGQPAENYKNTQPIMNTNGSYFVYSKLNVQKSNWEAGNTFTCSVLHEGLHNHHTEKSLSHSPGK
# notes: also called humanized chimeric antibody VHHA2322H2-mIgG1Fc
# B3: VHHC0708H2-mIgG1Fc (Fc fusion)
# chain: EVQLVESGGGVVQPGGSLRLSCAASGYTYSRYCMGWVRQAPGKEREGVALIASDGTTTYADSVKGRFTISQDNSKNTLYLQMNSLRAEDTAVYYCAADAVNWYGSICASMIRRKNPAFGYWGQGTLVTVSSVPRDCGCKPCICTVPEVSSVFIFPPKPKDVLTITLTPKVTCVVVDISKDDPEVQFSWFVDDVEVHTAQTQPREEQFNSTFRSVSELPIMHQDWLNGKEFKCRVNSAAFPAPIEKTISKTKGRPKAPQVYTIPPPKEQMAKDKVSLTCMITDFFPEDITVEWQWNGQPAENYKNTQPIMNTNGSYFVYSKLNVQKSNWEAGNTFTCSVLHEGLHNHHTEKSLSHSPGK
# notes: also called humanized chimeric antibody VHHC0708H2-mIgG1Fc
# B4: VHHA2493 (VHH)
# VHH: QMQLVESGGGSVQSGGSLRLSCATNEPPYSIYCMAWFRQAPGKARERVAAILNAGGTRYADSVKGRFTISRDNAAKTFALQMNSLKPEDTGTYYCATRADAGRWGSACTTELDFGNWGQGTQVTVSS
# notes: Screened as E. coli culture supernatant and detected with an anti-cmyc antibody
# B5: VHHC0694 (VHH)
# VHH: QVQLVESGGGSVQSGGSLRLSCAASGYTYSRYCMAWFRQAPGKEREGVAVIDPDGSTTYADSVKGRFTISQDNAKNTLYLQMNSLKPEDTAMYYCAADPRVWYGGTCRAGRTDFSNWGQGTQVTVSS
# notes: as for B4
# B6: VHHA2322 (VHH)
# VHH: QVHLVESGGGSVQSGGSLRLSCAASGYTGRRLCRGWFRQTPGKEREGVATITLSGRASYADSVKGRFTISQDNAKNTLYLQMNGLKPEDTAMYFCAEVRSADAEWLNPLKCHPDRLGLAGVDWGQGTQVTVSS
# notes: as for B4
# B7: VHHC0464 (VHH)
# VHH: QVQLQESGGGLVQAGGSLRLSCLASGLAFPSYAMGWFRQAPGKEREWVSCVTRSGGDTLYADSAKGRFAISRDNAKNTLYLQMNSLKPEDTAMYYCAAALFCANLRRNKDNYWGQGTQVTVSS
# notes: as for B4
# B8: VHHC0467 (VHH)
# VHH: QMQLVESGGGLVQAGGSLRLSCIASGLTFPTYAMGWFRQAPGKEREWVSCVTRSGGDTLYADSAKGRFTISRDNAKNTLFLQMNSLKPEDTAMYYCVAALFCHNLRLNTGNYWGQGTQVTVSS
# notes: as for B4
# B9: VHHC0494 (VHH)
# VHH: QVHLVESGGGSVQSGGSLRLSCATSASPYSMHCMGWFRQAPGKARERVASILNAGSTTYADSVKGRFTISRDNAEKTLYLQMNSLKPEDTGTYYCAARPDAGRWRSACTTELDFGYWGQGTQVTVSS
# notes: as for B4
# B10: VHHC0708 (VHH)
# VHH: QVQLEESGGGSVQSGGSLRLSCAASGYTYSRYCMGWVRQAPGKEREGVALIASDGTTTYADSVKGRFTISQDNAKNTLYLQMNSLKPEDTAMYYCAADAVNWYGSICASMIRRKNPAFGYWGRGTQVTVSS
# notes: as for B4
# B11: VHHC0524 (VHH)
# VHH: QVQLAESGGGSVQSGGSLRLSCAASGYTYSRYCMAWFRQAPGKEREGVAVIVSDNDGSATYADSVKGRFTISQDNAKNMLYLQMNSLKPEDTAMYYCAADPRVWYGGTCRAGRTDFLYWGQGTQVTVSS
# notes: as for B4
# B12: VHHC0806 (VHH)
# VHH: QVHLVESGGGSVQSGGSLRLSCAGSGYTYSTHCMGWFRQAPGKERERVATIDKDGRTSHYADAVKGRFTISQDNAKNTLYLQMSSLNPEDTAMYYCAAAEHRGAWCPLWDRSAPLLAHIHWGQGTQVTVSS
# notes: as for B4
# Biological target: T2, huGCC-his (human, UniProt P25092 24-430, limits assumed)
# T2 construct: Soluble his-tagged human GCC used as analyte on Biacore; also called GCC (SPR analyte); not shown: his tag
# T2 sequence (P25092 24-430 limits assumed): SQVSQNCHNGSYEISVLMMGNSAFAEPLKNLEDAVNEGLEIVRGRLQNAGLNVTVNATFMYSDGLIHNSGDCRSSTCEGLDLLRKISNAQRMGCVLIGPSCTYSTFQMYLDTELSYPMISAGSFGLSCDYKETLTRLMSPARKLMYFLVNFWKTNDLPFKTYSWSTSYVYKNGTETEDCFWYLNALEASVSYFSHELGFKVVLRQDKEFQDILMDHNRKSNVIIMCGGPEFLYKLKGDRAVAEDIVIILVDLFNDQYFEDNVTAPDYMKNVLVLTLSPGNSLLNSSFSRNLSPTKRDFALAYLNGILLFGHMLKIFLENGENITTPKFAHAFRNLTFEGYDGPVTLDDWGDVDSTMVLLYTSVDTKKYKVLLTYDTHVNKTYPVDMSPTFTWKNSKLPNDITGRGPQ
# Assay: SPR, Biacore T200; antibody captured via Fc, GCC as analyte; 1:1 model
row,Kd,Binder
1,1.34 nM,B1
2,1.65 nM,B2
3,1.02 nM,B3

# Biological target: T3, human GCC (human, UniProt P25092 24-1073)
# T3 construct: whole, on cells; also called huGCC; Guanylyl cyclase C
# T3 sequence (P25092 24-1073): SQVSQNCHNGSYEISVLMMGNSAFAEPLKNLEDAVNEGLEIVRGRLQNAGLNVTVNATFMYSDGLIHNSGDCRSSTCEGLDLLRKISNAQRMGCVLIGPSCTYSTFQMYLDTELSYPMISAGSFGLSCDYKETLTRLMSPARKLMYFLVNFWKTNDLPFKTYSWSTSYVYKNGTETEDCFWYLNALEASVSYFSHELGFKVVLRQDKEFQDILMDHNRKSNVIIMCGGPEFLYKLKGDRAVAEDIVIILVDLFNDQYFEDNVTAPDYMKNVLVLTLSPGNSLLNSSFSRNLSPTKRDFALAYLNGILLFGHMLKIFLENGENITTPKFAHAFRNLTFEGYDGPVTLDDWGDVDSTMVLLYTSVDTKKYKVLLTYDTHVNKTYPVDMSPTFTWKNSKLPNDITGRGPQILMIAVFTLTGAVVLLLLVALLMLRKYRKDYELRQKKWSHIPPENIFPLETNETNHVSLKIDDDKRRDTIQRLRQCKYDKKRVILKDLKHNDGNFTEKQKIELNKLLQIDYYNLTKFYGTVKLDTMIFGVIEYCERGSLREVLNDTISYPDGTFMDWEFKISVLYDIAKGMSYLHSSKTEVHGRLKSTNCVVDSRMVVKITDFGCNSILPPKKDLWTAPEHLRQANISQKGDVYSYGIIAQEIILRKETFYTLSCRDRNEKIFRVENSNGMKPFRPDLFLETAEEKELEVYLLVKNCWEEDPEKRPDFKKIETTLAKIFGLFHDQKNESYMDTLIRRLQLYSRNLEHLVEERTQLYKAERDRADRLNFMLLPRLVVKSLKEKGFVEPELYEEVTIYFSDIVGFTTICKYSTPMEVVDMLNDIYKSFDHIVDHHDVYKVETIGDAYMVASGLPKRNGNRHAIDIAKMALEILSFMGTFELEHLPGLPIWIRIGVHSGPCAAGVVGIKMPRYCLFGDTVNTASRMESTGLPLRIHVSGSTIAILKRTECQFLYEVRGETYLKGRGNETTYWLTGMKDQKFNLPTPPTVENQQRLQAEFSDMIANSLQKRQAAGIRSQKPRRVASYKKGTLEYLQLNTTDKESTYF
# Assay: flow cytometry on HEK293T.huGCC.Luc cells, percentage of binding
row,EC50,Binder
1,0.0315 nM,B1
2,0.0192 nM,B2

# Biological target: T1, mouse GCC
# Assay: flow cytometry on HEK293T.mGCC.Luc cells, PE goat anti-mouse IgG secondary; Binding % = cells with antibody bound / total cells
row,binding result,Binder
1,no binding (tested: 1000 nM),B1
2,no binding (tested: 1000 nM),B2

# Biological target: T3, human GCC
# Assay: screen of clone supernatants: cell based ELISA on HEK293T.huGCC.Luc cells and ELISA on recombinant human GCC protein (ACRO GUC-H52H5)
row,binding result,Binder
1,binds,B4
2,binds,B5
3,binds,B6
4,binds,B7
5,binds,B8
6,binds,B9
7,binds,B10
8,binds,B11
9,binds,B12

# From patent US20260091061A1 (LEGEND BIOTECH IRELAND, published 2026)
